In the MegaScale stability set (Tsuboyama et al. 2023):

B1: EHEE_rd2_0191 (parent)
chain: TTEYTFTDDEEARRAIEELKKRGLTFRYEKHGTTWRVRVD

Variants of: B1
Experiment: folding stability dG (cDNA display proteolysis); higher = more stable
Conditions: PBS, room temperature
With TTEYTFTDDEEARFAIEELKKRGLTFRYEKHGTTWRVRVD [R14F] the “folding stability dG” value was 1.64 kcal/mol.
In the case of TTEYTFTDDEEARHAIEELKKRGLTFRYEKHGTTWRVRVD [R14H], the “folding stability dG” value is reported as 1.82 kcal/mol.
For TTEYTFTDDEEARDAIEELKKRGLTFRYEKHGTTWRVRVD [R14D], the “folding stability dG” value was 1.45 kcal/mol.
For TTEYTFTDDEEARAAIEELKKRGLTFRYEKHGTTWRVRVD [R14A], the “folding stability dG” value was 2.1 kcal/mol.
With TTEYTFTDDEEARIAIEELKKRGLTFRYEKHGTTWRVRVD [R14I] the “folding stability dG” value was 1.93 kcal/mol.
For TTEYTFTDDEEARGAIEELKKRGLTFRYEKHGTTWRVRVD [R14G], the “folding stability dG” value was 1.35 kcal/mol.
With TTEYTFTDDEEAREAIEELKKRGLTFRYEKHGTTWRVRVD [R14E] the “folding stability dG” value was 1.7 kcal/mol.
For TTEYTFTDDEEARKAIEELKKRGLTFRYEKHGTTWRVRVD [R14K], the “folding stability dG” value was 2.12 kcal/mol.
In the case of TTEYTFTDREEARRAIEELKKRGLTFRYEKHGTTWRVRVD [D9R], the “folding stability dG” value is reported as 1.92 kcal/mol.
In the case of TTEYTFTDEEEARRAIEELKKRGLTFRYEKHGTTWRVRVD [D9E], the “folding stability dG” value is reported as 2.41 kcal/mol.
For TTEYTFTDGEEARRAIEELKKRGLTFRYEKHGTTWRVRVD [D9G], the “folding stability dG” value was 1.81 kcal/mol.
In the case of TTEYTFTDKEEARRAIEELKKRGLTFRYEKHGTTWRVRVD [D9K], the “folding stability dG” value is reported as 1.77 kcal/mol.
In the case of TTEYTFTDTEEARRAIEELKKRGLTFRYEKHGTTWRVRVD [D9T], the “folding stability dG” value is reported as 1.3 kcal/mol.
With TTEYTFTDPEEARRAIEELKKRGLTFRYEKHGTTWRVRVD [D9P] the “folding stability dG” value was 2.3 kcal/mol.
With TTEYTFTDMEEARRAIEELKKRGLTFRYEKHGTTWRVRVD [D9M] the “folding stability dG” value was 1.83 kcal/mol.
For TTEYTFTDWEEARRAIEELKKRGLTFRYEKHGTTWRVRVD [D9W], the “folding stability dG” value was 3.27 kcal/mol.
For TTEYTFTDIEEARRAIEELKKRGLTFRYEKHGTTWRVRVD [D9I], the “folding stability dG” value was 2.08 kcal/mol.
With TTEYTFTDQEEARRAIEELKKRGLTFRYEKHGTTWRVRVD [D9Q] the “folding stability dG” value was 1.8 kcal/mol.
For TTEYTFTDFEEARRAIEELKKRGLTFRYEKHGTTWRVRVD [D9F], the “folding stability dG” value was 2.33 kcal/mol.
With TTEYTFTDVEEARRAIEELKKRGLTFRYEKHGTTWRVRVD [D9V] the “folding stability dG” value was 2 kcal/mol.
In the case of TTEYTFTDYEEARRAIEELKKRGLTFRYEKHGTTWRVRVD [D9Y], the “folding stability dG” value is reported as 2.39 kcal/mol.
In the case of TTEYTFTDNEEARRAIEELKKRGLTFRYEKHGTTWRVRVD [D9N], the “folding stability dG” value is reported as 1.63 kcal/mol.
With TTEYTFTDLEEARRAIEELKKRGLTFRYEKHGTTWRVRVD [D9L] the “folding stability dG” value was 1.91 kcal/mol.
For TTEYTFTDAEEARRAIEELKKRGLTFRYEKHGTTWRVRVD [D9A], the “folding stability dG” value was 2.15 kcal/mol.
In the case of TTEYTFTDSEEARRAIEELKKRGLTFRYEKHGTTWRVRVD [D9S], the “folding stability dG” value is reported as 1.81 kcal/mol.
For TTEYTFTDHEEARRAIEELKKRGLTFRYEKHGTTWRVRVD [D9H], the “folding stability dG” value was 1.73 kcal/mol.
For TTEYTFTDDEEMRRAIEELKKRGLTFRYEKHGTTWRVRVD [A12M], the “folding stability dG” value was 2.33 kcal/mol.
With TTEYTFTDDEEFRRAIEELKKRGLTFRYEKHGTTWRVRVD [A12F] the “folding stability dG” value was 3.56 kcal/mol.
For TTEYTFTDDEELRRAIEELKKRGLTFRYEKHGTTWRVRVD [A12L], the “folding stability dG” value was 2.53 kcal/mol.
For TTEYTFTDDEEKRRAIEELKKRGLTFRYEKHGTTWRVRVD [A12K], the “folding stability dG” value was -0.512 kcal/mol.
With TTEYTFTDDEEIRRAIEELKKRGLTFRYEKHGTTWRVRVD [A12I] the “folding stability dG” value was 0.942 kcal/mol.
In the case of TTEYTFTDDEETRRAIEELKKRGLTFRYEKHGTTWRVRVD [A12T], the “folding stability dG” value is reported as 0.424 kcal/mol.
For TTEYTFTDDEESRRAIEELKKRGLTFRYEKHGTTWRVRVD [A12S], the “folding stability dG” value was -0.064 kcal/mol.
With TTEYTFTDDEEVRRAIEELKKRGLTFRYEKHGTTWRVRVD [A12V] the “folding stability dG” value was 1.47 kcal/mol.
In the case of TTEYTFTDDEEHRRAIEELKKRGLTFRYEKHGTTWRVRVD [A12H], the “folding stability dG” value is reported as 0.073 kcal/mol.
In the case of TTEYTFTDDEEYRRAIEELKKRGLTFRYEKHGTTWRVRVD [A12Y], the “folding stability dG” value is reported as 1.66 kcal/mol.
With TTEYTFTDDEEGRRAIEELKKRGLTFRYEKHGTTWRVRVD [A12G] the “folding stability dG” value was 1.04 kcal/mol.
In the case of TTEYTFTDDEEQRRAIEELKKRGLTFRYEKHGTTWRVRVD [A12Q], the “folding stability dG” value is reported as -0.999 kcal/mol.
In the case of TTEYTFTDDEECRRAIEELKKRGLTFRYEKHGTTWRVRVD [A12C], the “folding stability dG” value is reported as 2.13 kcal/mol.
For TTEYTFTDDEEWRRAIEELKKRGLTFRYEKHGTTWRVRVD [A12W], the “folding stability dG” value was 1.63 kcal/mol.
For TTEYTFTDDEERRRAIEELKKRGLTFRYEKHGTTWRVRVD [A12R], the “folding stability dG” value was -0.372 kcal/mol.
With TTEYTFTDDEEAMRAIEELKKRGLTFRYEKHGTTWRVRVD [R13M] the “folding stability dG” value was 2.42 kcal/mol.
In the case of TTEYTFTDDEEAVRAIEELKKRGLTFRYEKHGTTWRVRVD [R13V], the “folding stability dG” value is reported as 1.69 kcal/mol.
In the case of TTEYTFTDDEEAHRAIEELKKRGLTFRYEKHGTTWRVRVD [R13H], the “folding stability dG” value is reported as 1.98 kcal/mol.
With TTEYTFTDDEEAERAIEELKKRGLTFRYEKHGTTWRVRVD [R13E] the “folding stability dG” value was 1.79 kcal/mol.
With TTEYTFTDDEEADRAIEELKKRGLTFRYEKHGTTWRVRVD [R13D] the “folding stability dG” value was 0.9 kcal/mol.
For TTEYTFTDDEEAWRAIEELKKRGLTFRYEKHGTTWRVRVD [R13W], the “folding stability dG” value was 2.52 kcal/mol.
In the case of TTEYTFTDDEEAFRAIEELKKRGLTFRYEKHGTTWRVRVD [R13F], the “folding stability dG” value is reported as 2.31 kcal/mol.
For TTEYTFTDDEEAYRAIEELKKRGLTFRYEKHGTTWRVRVD [R13Y], the “folding stability dG” value was 2.2 kcal/mol.
With TTEYTFTDDEEALRAIEELKKRGLTFRYEKHGTTWRVRVD [R13L] the “folding stability dG” value was 2.3 kcal/mol.
With TTEYTFTDDEEANRAIEELKKRGLTFRYEKHGTTWRVRVD [R13N] the “folding stability dG” value was 1.68 kcal/mol.
With TTEYTFTDDEEAKRAIEELKKRGLTFRYEKHGTTWRVRVD [R13K] the “folding stability dG” value was 2.04 kcal/mol.
For TTEYTFTDDEEATRAIEELKKRGLTFRYEKHGTTWRVRVD [R13T], the “folding stability dG” value was 1.83 kcal/mol.
With TTEYTFTDDEEAGRAIEELKKRGLTFRYEKHGTTWRVRVD [R13G] the “folding stability dG” value was 1.44 kcal/mol.
For TTEYTFTDDEEASRAIEELKKRGLTFRYEKHGTTWRVRVD [R13S], the “folding stability dG” value was 1.55 kcal/mol.
For TTEYTFTDDEEAIRAIEELKKRGLTFRYEKHGTTWRVRVD [R13I], the “folding stability dG” value was 2.1 kcal/mol.
For TTEYTFTDDEEAARAIEELKKRGLTFRYEKHGTTWRVRVD [R13A], the “folding stability dG” value was 1.85 kcal/mol.
For TTEYTFTDDEEAQRAIEELKKRGLTFRYEKHGTTWRVRVD [R13Q], the “folding stability dG” value was 1.94 kcal/mol.
For TTEYTFNDDEEARRAIEELKKRGLTFRYEKHGTTWRVRVD [T7N], the “folding stability dG” value was 1.97 kcal/mol.
With TTEYTFIDDEEARRAIEELKKRGLTFRYEKHGTTWRVRVD [T7I] the “folding stability dG” value was 1.68 kcal/mol.
In the case of TTEYTFSDDEEARRAIEELKKRGLTFRYEKHGTTWRVRVD [T7S], the “folding stability dG” value is reported as 1.75 kcal/mol.
With TTEYTFWDDEEARRAIEELKKRGLTFRYEKHGTTWRVRVD [T7W] the “folding stability dG” value was 1.89 kcal/mol.
